Data on 7 molecules can be found in patent publication WO2001072771A2 (dated 2003).

Positions of bridges follow the written chain, without caps; N, C: chain ends. No end group written: not given here.

Test [1] deals with T1, sIGF-1R-Fc (UniProt P08069 31-935).
T1 construct: also called slGF-1R-Fc; not shown: Fc part not described
Description: phage ELISA.

Test [2] concerns the target T2, soluble human insulin receptor (IR-Fc) (human, UniProt P06213 28-956).
T2 construct: extracellular domain; retains the beta-alpha-alpha-beta structure; also called sIR; sIR-Fc
Description: assay not given.

For test [3], the target named is human IGF-1 receptor (HIGF-1R) (human, UniProt P08069 31-1367). Nature of the test: displacement of 125I-IGF-1 from HIGF-1R.

HPSLSDMRWILLGGGS (on phage; motif 7) [IM459 (Δ-12-3* #60)]: the binding result in test [1] is “no binding”.
Same read-out and setting: the same measure for HPPLEHLKAFLLGGGS (on phage; motif 7; also called ~J228) [IM452 (Δ-12-3 #23)]: “no binding”; for HPTSKEIYAKLLGGGS (on phage; motif 7) [IM449 (Δ-12-3 #43)]: “no binding”; for HPPLSELKLFLIGGGS (on phage; motif 7) [IM451 (Δ-12-3 #34)]: “no binding”.
APTFYAWFNQQTGGGS (on phage; also called ~J229) [IM445 (Δ-12-3 #6)]: the IC50 – broadly, the concentration that inhibits the measured activity by half – in test [2] was about 2400 nM.

B1: C1 peptide (peptide)
peptide: DYKDCWARPCGDAANFYDWFVQQASKK
modifications: disulfide 5-10 (inferred)
notes: synthetic; biotinylated where printed as b-C1 or D112; also called D112; b-C1
For the molecule B1, the binding result in test [3] is given as “binds”.
Take HPSTNQMLMKLFGGGS (on phage; motif 7) [IM450 (Δ-12-3 #28)]: in test [1], the binding result is on record as “no binding”.
